Test results from patent US6750197B1, “Activators of endothelial nitric oxide synthase” (Rensselaer Polytechnic Institute, priority 1996, dated 2004).

What was measured:
NNOS = NNOS (Rattus norvegicus, UniProt P29476); assay: CAM binding: radiolabeled CAM trapped on a membrane by NNOS adhesion; settings: no peptide: 774 ± 40
Protocol: (§1) JX series polypeptides are approximately 30-mers derived from ENOS and NNOS inhibitory polypeptides. B058 series are shorter (6-mers to 15-mers) peptides derived from flanking loops or from shorter segments of inhibitory polypeptides. CAM binding data represents counts from radiolabeled CAM trapped on a membrane by NNOS adhesion. INOS activity was assayed by measuring oxidation of ferrous myoglobin by product NO.

INOS = INOS (Rattus norvegicus, UniProt Q06518); assay: INOS activity by oxidation of ferrous myoglobin by product NO; type: biochemical; design: unit not given here; settings: for INOS Activity 0.1 mg/ml: peptide 0.1 mg/ml, no peptide: 14.9 ± .56; for INOS activity 0.3 mg/ml: peptide 0.3 mg/ml, no peptide: 12.3 ± .19; for INOS Activity 1.0 mg/ml: peptide 1.0 mg/ml, no peptide: 13.0 ± .23
Protocol: as §1

recombinant bovine ENOS = target: T1, recombinant bovine ENOS (Bos taurus, UniProt P29473); assay: NOS activity, kinetic 96-well microtiter plate assay, NADPH consumption; type: biochemical; settings: mean ± SEM, triplicate
T1 construct: made in house; host or cells: E. coli
T1 sequence (P29473 1-1205): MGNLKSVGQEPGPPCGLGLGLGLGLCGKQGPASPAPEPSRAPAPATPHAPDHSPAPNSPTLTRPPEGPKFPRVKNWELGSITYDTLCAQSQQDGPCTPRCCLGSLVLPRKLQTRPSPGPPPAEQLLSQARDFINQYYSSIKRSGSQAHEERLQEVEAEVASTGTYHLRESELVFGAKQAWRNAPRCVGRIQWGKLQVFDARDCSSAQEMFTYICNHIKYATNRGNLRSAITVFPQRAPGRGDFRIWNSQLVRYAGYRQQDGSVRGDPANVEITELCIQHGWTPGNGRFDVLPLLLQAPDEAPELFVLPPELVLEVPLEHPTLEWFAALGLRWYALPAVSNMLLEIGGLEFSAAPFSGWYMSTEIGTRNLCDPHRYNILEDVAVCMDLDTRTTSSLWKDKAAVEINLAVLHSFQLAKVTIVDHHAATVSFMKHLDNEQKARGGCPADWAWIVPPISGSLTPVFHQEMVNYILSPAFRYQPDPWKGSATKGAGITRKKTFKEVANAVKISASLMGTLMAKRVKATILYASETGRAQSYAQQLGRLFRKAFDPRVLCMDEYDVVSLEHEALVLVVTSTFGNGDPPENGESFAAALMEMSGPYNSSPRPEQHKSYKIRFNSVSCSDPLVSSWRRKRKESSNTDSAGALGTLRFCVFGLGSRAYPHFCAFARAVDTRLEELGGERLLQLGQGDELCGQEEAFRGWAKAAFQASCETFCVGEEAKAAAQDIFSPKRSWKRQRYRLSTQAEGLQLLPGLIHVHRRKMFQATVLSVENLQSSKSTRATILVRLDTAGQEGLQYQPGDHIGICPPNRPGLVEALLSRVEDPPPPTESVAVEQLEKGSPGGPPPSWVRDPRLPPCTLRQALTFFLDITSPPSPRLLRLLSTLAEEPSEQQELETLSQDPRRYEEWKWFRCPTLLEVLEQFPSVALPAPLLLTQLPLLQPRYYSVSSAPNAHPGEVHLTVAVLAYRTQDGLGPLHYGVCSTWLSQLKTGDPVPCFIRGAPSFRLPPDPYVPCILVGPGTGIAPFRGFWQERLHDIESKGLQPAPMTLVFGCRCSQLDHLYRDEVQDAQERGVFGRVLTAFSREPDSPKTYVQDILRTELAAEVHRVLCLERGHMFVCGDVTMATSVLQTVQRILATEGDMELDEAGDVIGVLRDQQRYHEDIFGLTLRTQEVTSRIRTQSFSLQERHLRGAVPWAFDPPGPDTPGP
Protocol: (§2) NOS activity measurements were performed using recombinant rat NNOS (purified from overexpressing HEK293 cells), recombinant bovine ENOS (purified from overexpressing E. coli) or native INOS (from immunostimulant-activated rat aortic smooth muscle cells). Activity was determined with 1-20 pmole of NOS using a kinetic 96-well microtiter plate assay based on the kinetics of NADPH consumption (NNOS and ENOS) or Fe^2+-myoglobin oxidation. Radioligand binding was performed after incubation of 1-2 pmole of NOS for 15 minutes at 23° C. with either Bolton-Hunter labelled [125I]-calmodulin (1 nM) or [3H]-N-nitro-L-arginine (200 pM) and the indicated peptides. Values are means ±SEM of triplicate determinations.

recombinant rat NNOS = target: T2, recombinant rat NNOS (Rattus norvegicus, UniProt P29476); assay: as above; type: biochemical; settings: mean ± SEM, triplicate
T2 construct: made in house; host or cells: HEK293 cells
T2 sequence (P29476 whole entry): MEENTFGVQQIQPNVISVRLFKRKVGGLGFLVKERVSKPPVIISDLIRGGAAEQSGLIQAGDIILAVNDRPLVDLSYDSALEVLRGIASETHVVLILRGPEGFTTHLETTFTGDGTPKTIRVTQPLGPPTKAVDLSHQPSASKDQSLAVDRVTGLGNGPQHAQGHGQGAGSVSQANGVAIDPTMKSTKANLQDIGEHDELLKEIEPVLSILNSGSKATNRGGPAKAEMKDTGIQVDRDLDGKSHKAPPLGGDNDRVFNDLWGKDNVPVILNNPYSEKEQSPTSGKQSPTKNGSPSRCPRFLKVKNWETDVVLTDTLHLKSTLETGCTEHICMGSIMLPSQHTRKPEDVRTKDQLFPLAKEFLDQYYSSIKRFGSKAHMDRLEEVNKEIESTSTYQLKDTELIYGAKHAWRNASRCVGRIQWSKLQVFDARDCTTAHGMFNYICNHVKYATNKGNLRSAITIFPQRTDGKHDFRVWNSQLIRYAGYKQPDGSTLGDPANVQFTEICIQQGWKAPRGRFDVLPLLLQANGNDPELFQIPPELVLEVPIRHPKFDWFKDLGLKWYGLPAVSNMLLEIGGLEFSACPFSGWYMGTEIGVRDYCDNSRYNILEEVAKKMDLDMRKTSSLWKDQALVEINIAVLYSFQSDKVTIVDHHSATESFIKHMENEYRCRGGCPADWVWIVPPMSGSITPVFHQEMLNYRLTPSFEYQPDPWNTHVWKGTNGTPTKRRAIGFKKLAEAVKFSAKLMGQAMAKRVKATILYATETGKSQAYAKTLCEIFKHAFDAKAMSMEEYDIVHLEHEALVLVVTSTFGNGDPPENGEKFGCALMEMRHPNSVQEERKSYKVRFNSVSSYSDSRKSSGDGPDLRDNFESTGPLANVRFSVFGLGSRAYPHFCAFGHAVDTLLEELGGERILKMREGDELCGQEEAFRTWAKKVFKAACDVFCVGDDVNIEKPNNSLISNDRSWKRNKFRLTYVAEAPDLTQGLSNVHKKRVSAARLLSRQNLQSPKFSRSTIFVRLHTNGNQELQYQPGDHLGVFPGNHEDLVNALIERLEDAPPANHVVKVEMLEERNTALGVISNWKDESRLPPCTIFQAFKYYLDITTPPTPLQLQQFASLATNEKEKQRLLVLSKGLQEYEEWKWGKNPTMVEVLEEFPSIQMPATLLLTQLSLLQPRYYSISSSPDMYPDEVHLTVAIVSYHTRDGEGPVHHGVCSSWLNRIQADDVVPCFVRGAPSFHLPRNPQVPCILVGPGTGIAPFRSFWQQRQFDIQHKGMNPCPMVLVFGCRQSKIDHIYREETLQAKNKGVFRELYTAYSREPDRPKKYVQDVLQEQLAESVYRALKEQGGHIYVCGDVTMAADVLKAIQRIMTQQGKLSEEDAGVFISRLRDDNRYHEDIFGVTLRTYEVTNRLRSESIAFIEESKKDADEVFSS
Protocol: as §2

[1] = target: T3, native INOS (from immunostimulant-activated rat aortic smooth muscle cells) (Rattus norvegicus, UniProt Q06518); assay: NOS activity, kinetic 96-well microtiter plate assay, Fe2+-myoglobin oxidation; type: biochemical; settings: mean ± SEM, triplicate
T3 construct: endogenous in cells
Protocol: as §2

NOS [2] = assay: Radioligand binding of [3H]-N-nitro-L-arginine to NOS; design: scale not given here; settings: ligand 200 pM, 15 minutes at 23° C., mean ± SEM
Protocol: as §2

NOS [3] = assay: Radioligand binding of [125I]-calmodulin to NOS; design: scale not given here; settings: ligand 1 nM, 15 minutes at 23° C., mean ± SEM
Protocol: as §2

Sequence of NNOS (P29476 whole entry): as above

Row | NNOS CAM Binding (NNOS) [counts] | INOS Activity 0.1 mg/ml (INOS) | NOS Activity (% of control) ENOS (recombinant bovine ENOS; peptide 100 μg/ml) | NOS Activity (% of control) NNOS (recombinant rat NNOS; peptide 100 μg/ml) | NOS Activity (% of control) INOS ([1]; peptide 100 μg/ml) | Ligand binding to NOS [3H]-NHA (NOS [2]; peptide 100 μg/ml) | Ligand binding to NOS [125I]-CAM (NOS [3]; peptide 100 μg/ml) | INOS activity 0.3 mg/ml (INOS) | INOS Activity 1.0 mg/ml (INOS) | NOS Activity (% of control) ENOS (recombinant bovine ENOS; peptide 300 μg/ml) | NOS Activity (% of control) NNOS (recombinant rat NNOS; peptide 300 μg/ml) | NOS Activity (% of control) INOS ([1]; peptide 300 μg/ml) | Ligand binding to NOS [3H]-NHA (NOS [2]; peptide 300 μg/ml) | Ligand binding to NOS [125I]-CAM (NOS [3]; peptide 300 μg/ml) | Substance
1 | 908 ± 56 | 14.7 ± .94 | 102.6 ± 4.1 % of control | 98.4 ± 1.9 % of control | 99.7 ± 2.8 % of control | 119.2 ± 3.4 | 89.2 ± 6.2 | – | – | – | – | – | – | – | SDSRKSSGDGPDLR [BO58-11, 18]
2 | 686 ± 43 | 14.7 ± .28 | 93.6 ± 2.3 % of control | 102.0 ± 2.1 % of control | 101.1 ± 3.7 % of control | 118.9 ± 4.1 | 82.7 ± 1.1 | – | – | – | – | – | – | – | QEERKSYKVRF [BO58-09, 16]
3 | 674 ± 100 | 12.9 ± .32 | – | – | – | – | – | 7.9 ± .11 | 2.9 ± .32 | 40.2 ± 4.0 % of control | 28.2 ± 0.9 % of control | 64.3 ± 3.2 % of control | 122.4 ± 1.0 | 0.0 ± 4.8 | QHKSYKIRFNSVSCSDPLVSSWRRKRKE [JX3, 15]
4 | 952 ± 52 | 14.6 ± .03 | – | – | – | – | – | – | – | – | – | – | – | – | DIVHLEHES [BO58-05, 25]
5 | 903 ± 57 | 15.8 ± .73 | – | – | – | – | – | 14.9 ± .56 | – | – | – | – | – | – | DDVVSLEHET [BO58-04, 24]
6 | 953 ± 80 | 15.1 ± .03 | – | – | – | – | – | – | – | – | – | – | – | – | AVDTLLEELGGERT [BO58-02, 22]
7 | 1356 ± 46 | 13.1 ± .11 | – | – | – | – | – | 7.7 ± .11 | 3.2 ± .11 | 57.2 ± 7.5 % of control | 30.4 ± 1.7 % of control | 62.2 ± 2.8 % of control | 116.3 ± 1.9 | 0.0 ± 7.4 | SSPRPEQHKSYKIRFNSVSCSDPLVSSWRRKRKESS [JX2, 14]
8 | 986 ± 58 | 15.0 ± .73 | – | – | – | – | – | – | – | – | – | – | – | – | AVDTRLEELGGERT [BO58-01, 35]
9 | 659 ± 41 | 14.1 ± .57 | – | – | – | – | – | 10.4 ± .57 | 8.4 ± .57 | 80.2 ± 3.8 % of control | 103.0 ± 1.3 % of control | 84.1 ± 3.5 % of control | 95.7 ± 4.7 | 82.7 ± 1.1 | QEERKSYKVRFNSVSSYSDSQKSSGDGPDL [JX4, 19]
10 | 951 ± 100 | 15.3 ± .32 | – | – | – | – | – | – | – | – | – | – | – | – | KASTLEEEQ [BO58-06, 26]
11 | 1339 ± 49 | 14.6 ± .02 | 80.5 ± 2.0 % of control | 54.5 ± 1.8 % of control | 99.7 ± 5.7 % of control | 115.0 ± 8.6 | 24.7 ± 2.2 | – | – | – | – | – | – | – | RPEQHKSYKIRF [BO58-10, 17]
12 | 863 ± 19 | 14.4 ± .27 | – | – | – | – | – | – | – | – | – | – | – | – | DIDQKLSHLGASQT [BO58-03, 23]

Row | Substance | NNOS CAM Binding (NNOS) [counts] | INOS Activity 0.1 mg/ml (INOS) | NOS Activity (% of control) ENOS (recombinant bovine ENOS; peptide 100 μg/ml) | NOS Activity (% of control) NNOS (recombinant rat NNOS; peptide 100 μg/ml) | NOS Activity (% of control) INOS ([1]; peptide 100 μg/ml) | Ligand binding to NOS [3H]-NHA (NOS [2]; peptide 100 μg/ml) | Ligand binding to NOS [125I]-CAM (NOS [3]; peptide 100 μg/ml) | INOS activity 0.3 mg/ml (INOS) | INOS Activity 1.0 mg/ml (INOS) | NOS Activity (% of control) ENOS (recombinant bovine ENOS; peptide 300 μg/ml) | NOS Activity (% of control) NNOS (recombinant rat NNOS; peptide 300 μg/ml) | NOS Activity (% of control) INOS ([1]; peptide 300 μg/ml) | Ligand binding to NOS [3H]-NHA (NOS [2]; peptide 300 μg/ml) | Ligand binding to NOS [125I]-CAM (NOS [3]; peptide 300 μg/ml)
13 | WRRKRK [BO58-07, 12] | 1749 ± 40 | 13.6 ± .31 | 24.0 ± 2.8 % of control | 11.0 ± 3.3 % of control | 91.1 ± 5.7 % of control | 91.7 ± 5.1 | 6.7 ± 3.6 | – | – | – | – | – | – | –
